Experiment [1] deals with T1, recombinant CD19 (UniProt P15391 20-291, limits assumed).
T1 construct: also called Cluster of Differentiation 19; B-lymphocyte antigen CD19
T1 sequence (looked up): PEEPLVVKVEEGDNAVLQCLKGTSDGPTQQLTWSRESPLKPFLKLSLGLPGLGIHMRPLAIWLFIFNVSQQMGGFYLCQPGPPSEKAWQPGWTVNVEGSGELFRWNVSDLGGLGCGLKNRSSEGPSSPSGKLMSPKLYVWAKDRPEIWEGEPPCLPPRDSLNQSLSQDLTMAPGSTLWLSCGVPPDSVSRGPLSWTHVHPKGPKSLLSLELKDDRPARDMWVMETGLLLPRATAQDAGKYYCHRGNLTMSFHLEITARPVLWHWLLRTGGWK
The experiment in a line: ELISA on recombinant CD19, OD at 405 nm.

Experiment [2] addresses T1, recombinant CD19. Description: ELISA on recombinant CD19, OD at 405 nm against antibody concentration.
In experiment [3] the target is T2, CD19 on CD19+ cells (Raji cells; NALM-6 tumor cells) (UniProt P15391 20-556, limits assumed).
T2 construct: whole, on cells; Endogenous CD19 on tumor cell lines; also called CD19+ Raji cells
T2 sequence (looked up): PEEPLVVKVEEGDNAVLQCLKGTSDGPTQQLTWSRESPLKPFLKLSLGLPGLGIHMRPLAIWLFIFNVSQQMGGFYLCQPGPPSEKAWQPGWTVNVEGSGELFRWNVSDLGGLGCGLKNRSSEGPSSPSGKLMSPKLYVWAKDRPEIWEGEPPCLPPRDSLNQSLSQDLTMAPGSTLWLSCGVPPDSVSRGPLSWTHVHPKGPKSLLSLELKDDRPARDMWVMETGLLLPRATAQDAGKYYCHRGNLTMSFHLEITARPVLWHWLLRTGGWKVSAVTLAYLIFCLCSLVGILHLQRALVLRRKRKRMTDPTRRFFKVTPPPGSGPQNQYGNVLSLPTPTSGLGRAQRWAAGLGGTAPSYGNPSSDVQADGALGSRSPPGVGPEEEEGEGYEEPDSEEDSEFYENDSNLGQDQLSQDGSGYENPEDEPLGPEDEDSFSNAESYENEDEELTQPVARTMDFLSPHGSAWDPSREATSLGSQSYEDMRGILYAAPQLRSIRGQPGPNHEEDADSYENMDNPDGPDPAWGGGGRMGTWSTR
The experiment in a line: flow cytometry, binder incubated with CD19+ Raji cells. Background: A flow cytometer gives signals particle by particle.

Experiment [4] addresses T1, recombinant CD19. The experiment in a line: ELISA on recombinant CD19, OD at 405 nm against antibody concentration. The source holds these as a separate data set. In general terms: ELISA stands for enzyme-linked immunosorbent assay.
Experiment [5] deals with T2, CD19 on CD19+ cells (Raji cells; NALM-6 …). The experiment in a line: cell-based or functional assay.
Experiment [6] deals with T1, recombinant CD19. The experiment in a line: ELISA on recombinant CD19, OD at 405 nm against antibody concentration. The source holds these as a separate data set.

Broadly, the EC50 is the midpoint of the concentration-response curve. In general, EC50 (read off the curve) refers to the concentration needed to bring the measured effect to its halfway point.

Read-outs that look alike come from different tables or passages of the source. Where only a bound is given, the exact number is not on record here.

B1: CD19 Binder 3 (scFv, V domains shown)
VH: EVQLVQSGAEVKKPGESLKISCKGSGYSFTSYWIGWVRQMPGKGLEWMGIIYPGDSDTRYSPSFQGQVTISADKSISTAYLQWSSLKASDTAMYYCARLPFVGATTGGFDYWGQGTLVTVSS
VL: QSVVTQPASVSGSPGQSITISCTGTSSDVGGYNYVSWYQQHPGKAPKLVIYEVSNRPSGVSNRFSGSKSGNTASLTISGLQAEDEADYYCSSYTSSSTLVFGGGTKLTVL
Take B1: the EC50 in experiment [1] amounted to 0.044 µg/mL; in experiment [3] it was 1.2 µg/mL. Moreover, the “EC50 (read off the curve)” value in experiment [2] was roughly 0.04 µg/mL.

B2: CD19 Binder 1 (scFv, V domains shown)
VH: EVQLVESGGGLIQPGGSLRLSCAASGFTVSSNYMSWVRQAPGKGLEWVSVIYSGGSTYYADSVKGRFTISRDNSKNTLYLQMNSLRAEDTAVYYCARDGGLDTLYGMDVWGQGTTVTVSS
VL: QSVVTQPPSVSGAPGQRVTISCTGSSSNIGAGYDVHWYQQLPGTAPKLLIYGNSNRPSGVPDRFSGSKSGTSASLAITGLQAEDEADYYCQSYDSSLSGSYVFGTGTKVTVL
As to B2, the EC50 in experiment [1] worked out at 0.099 µg/mL; in experiment [3], 0.041 µg/mL. For the same molecule, the “EC50 (read off the curve)” value in experiment [4] is roughly 0.1 µg/mL.

B3: CAR 400 (VH-VL) CD19 chimeric antigen receptor (receptor)
chain: EVQLVQSGAEVKKPGESLKISCKGSGYSFTSYWIGWVRQMPGKGLEWMGIIYPGDSDTRYSPSFQGQVTISADKSISTAYLQWSSLKASDTAMYYCARLPFVGATTGGFDYWGQGTLVTVSSGGGGSGGGGSGGGGSQSVVTQPASVSGSPGQSITISCTGTSSDVGGYNYVSWYQQHPGKAPKLVIYEVSNRPSGVSNRFSGSKSGNTASLTISGLQAEDEADYYCSSYTSSSTLVFGGGTKLTVLTTTPAPRPPTPAPTIASQPLSLRPEACRPAAGGAVHTRGLDFACDIYIWAPLAGTCGVLLLSLVITLYCKRGRKKLLYIFKQPFMRPVQTTQEEDGCSCRFPEEEEGGCELRVKFSRSADAPAYQQGQNQLYNELNLGRREEYDVLDKRRGRDPEMGGKPRRKNPQEGLYNELQKDKMAEAYSEIGMKGERRRGKGHDGLYQGLSTATKDTYDALHMQALPPR
In the case of B3, the “NALM-6 survival percentage after 24-hour co-culture with hypoimmune CAR T cells, E:T ratio of 1:32 (luciferase read-out)” value in experiment [5] was less than 20%.

B4: CD19 Binder 2 (scFv, V domains shown)
VH: EVHLVESGGGLVQPGGSLRLSCAASGFTFSDYYMSWIRQAPGKGLEWVSYISSSGSTTYYADSVKGRFTISRDNAKNSLYLQMNSLRAEDTAVYYCARVEGWSLLDYWGQGTLVTVSS
VL: QSVLTQPPSVSAAPGQKVTMSCSGSSSNIGNNYVSWYQQLPGTAPKLLIYDNNKRPSGIPDRFSGSKSGTSATLGITGLQTGDEADYYCGTWDSSLGAVVFGGGTKVTVL
B4: the EC50 stood at 0.27 µg/mL in experiment [1] and 0.073 µg/mL in experiment [3]. The “EC50 (read off the curve)” value in experiment [6] was roughly 0.3 µg/mL.

Values taken from US20260217822A1 (SANA BIOTECHNOLOGY, published 2026).
